The text below walks through data of patent US20220396635A1 (UNIVERSIT T STUTTGART, published 2022).

One assay concerns the target T1, CEA (UniProt P06731 35-685).
T1 construct: whole, on cells
T1 sequence (looked up): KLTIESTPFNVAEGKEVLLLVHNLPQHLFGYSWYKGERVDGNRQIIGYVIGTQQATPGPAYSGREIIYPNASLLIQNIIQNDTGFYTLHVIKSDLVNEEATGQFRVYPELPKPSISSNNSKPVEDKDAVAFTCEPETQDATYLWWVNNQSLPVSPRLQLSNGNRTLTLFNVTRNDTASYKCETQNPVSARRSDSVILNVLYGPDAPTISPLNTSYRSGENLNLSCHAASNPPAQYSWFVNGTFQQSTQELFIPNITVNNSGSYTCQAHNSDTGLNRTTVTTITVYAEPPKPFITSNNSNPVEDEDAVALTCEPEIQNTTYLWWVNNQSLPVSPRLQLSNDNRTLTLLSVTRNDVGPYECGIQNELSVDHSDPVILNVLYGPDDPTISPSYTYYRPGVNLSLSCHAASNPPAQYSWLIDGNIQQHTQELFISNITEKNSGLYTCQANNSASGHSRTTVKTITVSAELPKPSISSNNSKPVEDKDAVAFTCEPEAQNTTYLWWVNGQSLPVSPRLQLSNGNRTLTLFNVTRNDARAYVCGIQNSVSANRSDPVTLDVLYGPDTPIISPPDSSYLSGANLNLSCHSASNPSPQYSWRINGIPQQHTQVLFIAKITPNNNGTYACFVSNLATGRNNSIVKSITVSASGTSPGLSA
The experiment in a line: flow cytometry, serial dilution on LIM1215 cells (CEA-expressing), PE anti-human Fc detection. The method, then:
(§1) Binding of trivalent, bispecific fusion proteins to CEA-expressing (LIM1215) and CD3-expressing (Jurkat) cell lines was analyzed by flow cytometry. 2×10⁵ cells/well were incubated with a serial dilution of trivalent, bispecific antibodies for 1 h at 4° C. followed by detection using a PE-conjugated anti-human Fc antibody (Jackson ImmunoResearch Laboratories Inc). […] Regarding the CEA-expressing cell line LIM1215, the trivalent, bispecific antibodies bound with EC₅₀ values in the nanomolar range (FIG. 16A) (Table 9).

For assay [1], the target named is T2, CD3 (UniProt P07766 23-207).
T2 construct: whole, on cells; on cells it stands in the TCR/CD3 complex; also called CD3 on Jurkat cells
Briefly: flow cytometry, serial dilution on Jurkat cells (CD3-expressing), PE anti-human Fc detection. As for the experimental part:
as §1

Assay [2] deals with T2, CD3. The experiment in a line: flow cytometry, serial dilution on Jurkat cells (CD3-expressing), PE anti-human Fc detection, n = 1. As for the experimental part:
Trivalent, trispecific antibodies were analyzed for their binding to tumor cell lines with different EGFR- and HER3-expression levels (Table 14) by flow cytometry. Adherent cells were washed with PBS and shortly trypsinized at 37° C. Trypsin was quenched with FCS-containing medium and removed by centrifugation (500×g, 5 min.). 1×10⁵ target cells/well (FaDu, LIM1215, SKBR-3, T-47-D, MCF-7 and Jurkat cells) were incubated with a serial dilution of trivalent, trispecific antibodies for 1 h at 4° C. After removing excess of recombinant protein by washing with PBA (PBS, 2% FBS, and 0.02% sodium azide), bound protein was detected using PE-conjugated anti-human Fc mAb (Jackson ImmunoResearch Laboratories Inc). Fluorescence was measured using MACSquant VYB (Miltenyi Biotec) and data were analyzed using FlowJo (Tree Star). Relative median fluorescence intensities (MFI) were calculated as followed: relative MFI=((MFIₛₐₘₚₗₑ-(MFIdetection-MFIcells))/MFIcells).

B1: scDb/Fab-Fc (1-1)+2, trivalent bispecific anti-CEAxanti-CD3 (bispecific antibody)
chain: QVKLQQSGAELVRSGTSVKLSCTASGFNIKDSYMHWLRQGPEQGLEWIGWIDPENGDTEYAPKFQGKATFTTDTSSNTAYLQLSSLTSEDTAVYYCNEGTPTGPYYFDYWGQGTTVTVSSGGGGSDIELTQSPAIMSASPGEKVTITCSASSSVSYMHWFQQKPGTSPKLWIYSTSNLASGVPARFSGSGSGTSYSLTISRMEAEDAATYYCQQRSSYPLTFGAGTKLELKRGGGGSGGGGSGGGGSQVKLQQSGAELVRSGTSVKLSCTASGFNIKDSYMHWLRQGPEQGLEWIGWIDPENGDTEYAPKFQGKATFTTDTSSNTAYLQLSSLTSEDTAVYYCNEGTPTGPYYFDYWGQGTTVTVSSGGGGSDIELTQSPAIMSASPGEKVTITCSASSSVSYMHWFQQKPGTSPKLWIYSTSNLASGVPARFSGSGSGTSYSLTISRMEAEDAATYYCQQRSSYPLTFGAGTKLELKRAAADKTHTCPPCPAPPVAGPSVFLFPPKPKDTLMISRTPEVTCVVVDVSHEDPEVKFNWYVDGVEVHNAKTKPREEQYNSTYRVVSVLTVLHQDWLNGKEYKCKVSNKGLPSSIEKTISKAKGQPREPQVCTLPPSRDELTKNQVSLSCAVKGFYPSDIAVEWESNGQPENNYKTTPPVLDSDGSFFLVSKLTVDKSRWQQGNVFSCSVMHEALHNHYTQKSLSLSPGK
heavy: QVQLVQSGAEVKKPGSSVKVSCKASGGTFSGYTMNWVRQAPGQGLEWMGLINPYKGVSTYNGKFKDRVTITADKSTSTAYMELSSLRSEDTAVYYCARSGYYGDSDWYFDVWGQGTLVTVSSASTKGPSVFPLAPSSKSTSGGTAALGCLVKDYFPEPVTVSWNSGALTSGVHTFPAVLQSSGLYSLSSVVTVPSSSLGTQTYICNVNHKPSNTKVDKKVEPKSCDKTHTCPPCPAPPVAGPSVFLFPPKPKDTLMISRTPEVTCVVVDVSHEDPEVKFNWYVDGVEVHNAKTKPREEQYNSTYRVVSVLTVLHQDWLNGKEYKCKVSNKGLPSSIEKTISKAKGQPREPQVYTLPPCRDELTKNQVSLWCLVKGFYPSDIAVEWESNGQPENNYKTTPPVLDSDGSFFLYSKLTVDKSRWQQGNVFSCSVMHEALHNHYTQKSLSLSPGK
light: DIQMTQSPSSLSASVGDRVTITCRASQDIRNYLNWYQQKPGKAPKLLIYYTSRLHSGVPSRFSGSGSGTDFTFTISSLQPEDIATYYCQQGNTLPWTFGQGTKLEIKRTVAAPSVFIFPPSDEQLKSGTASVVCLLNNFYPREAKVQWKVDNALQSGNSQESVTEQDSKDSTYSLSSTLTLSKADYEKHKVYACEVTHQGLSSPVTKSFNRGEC
notes: also called scDbCEAxCEA-Fc(hole)Δab + FdhuU3-Fc(knob)Δab + VLhuU3-CLK
Regarding B1, the results for the EC50 in the assay with CEA and with CD3 [1] were 8.5 nM and 0.8 nM, respectively.

B2: scDb/scFv-Fc (1-3)+2, trivalent trispecific anti-EGFRxanti-HER3×anti-CD3 (other)
chain 1: EVQLVESGGGLVQPGGSLRLSCAASGFSLTNYGVHWVRQAPGKGLEWLGVIWSGGNTDYNTPFTSRFTISRDNSKNTLYLQMNSLRAEDTAVYYCARALTYYDYEFAYWGQGTTVTVSSGGGGSQAGLTQPPAVSVAPGQTASITCGRDNIGSRSVHWYQQKPGQAPVLVVYDDSDRPAGIPERFSGSNYENTATLTISRVEAGDEADYYCQVWGITSDHVVFGGGTKLTVLGGGGSGGGGSGGGGSQVQLQQSGPGLVKPSQTLSLTCAISGDSVSSNRAAWNWIRQSPSRGLEWLGRTYYRSKWYNDYAQSLKSRITINPDTPKNQFSLQLNSVTPEDTAVYYCARDGQLGLDALDIWGQGTMVTVSSGGGGSDIQLTQSPSFLSASVGDRVTITCRASQSIGTNIHWYQQKPGKAPKLLIKYASESISGVPSRFSGSGSGTEFTLTISSLQPEDFATYYCQQNNNWPTTFGAGTKLEIKRAAADKTHTCPPCPAPPVAGPSVFLFPPKPKDTLMISRTPEVTCVVVDVSHEDPEVKFNWYVDGVEVHNAKTKPREEQYNSTYRVVSVLTVLHQDWLNGKEYKCKVSNKGLPSSIEKTISKAKGQPREPQVCTLPPSRDELTKNQVSLSCAVKGFYPSDIAVEWESNGQPENNYKTTPPVLDSDGSFFLVSKLTVDKSRWQQGNVFSCSVMHEALHNHYTQKSLSLSPGK
chain 2: DIQMTQSPSSLSASVGDRVTITCRASQDIRNYLNWYQQKPGKAPKLLIYYTSRLHSGVPSRFSGSGSGTDFTFTISSLQPEDIATYYCQQGNTLPWTFGQGTKLEIKRGGGGSGGGGSGGGGSQVQLVQSGAEVKKPGSSVKVSCKASGGTFSGYTMNWVRQAPGQGLEWMGLINPYKGVSTYNGKFKDRVTITADKSTSTAYMELSSLRSEDTAVYYCARSGYYGDSDWYFDVWGQGTLVTVSSAAADKTHTCPPCPAPPVAGPSVFLFPPKPKDTLMISRTPEVTCVVVDVSHEDPEVKFNWYVDGVEVHNAKTKPREEQYNSTYRVVSVLTVLHQDWLNGKEYKCKVSNKGLPSSIEKTISKAKGQPREPQVYTLPPCRDELTKNQVSLWCLVKGFYPSDIAVEWESNGQPENNYKTTPPVLDSDGSFFLYSKLTVDKSRWQQGNVFSCSVMHEALHNHYTQKSLSLSPGK
notes: Trispecific antibody: 1 = HER3, 2 = CD3, 3 = EGFR; also called scDbhu225x3-43-Fc(hole)Δab + scFvhuU3-Fc(knob)Δab
B2 registered a concentration giving a half-maximal response (EC50) with CD3 [2] of 0.6 nM.

B3: scDb/Fab-Fc (1-3)+2, trivalent trispecific anti-EGFRxanti-HER3×anti-CD3 (other)
chain: B2 chain 1
heavy: B1 heavy
light: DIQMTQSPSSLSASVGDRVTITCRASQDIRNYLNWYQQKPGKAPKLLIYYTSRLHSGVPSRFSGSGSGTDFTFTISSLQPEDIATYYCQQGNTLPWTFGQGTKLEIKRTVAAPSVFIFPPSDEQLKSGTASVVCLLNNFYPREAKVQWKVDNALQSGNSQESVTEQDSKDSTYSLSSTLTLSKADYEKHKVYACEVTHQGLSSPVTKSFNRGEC
notes: Trispecific antibody: 1 = HER3, 2 = CD3, 3 = EGFR; also called scDbhu225x3-43-Fc(hole)Δab + FdhuU3-Fc(knob)Δab + VLhuU3-CLK
As to B3, a half-maximal response with CD3 [2] (EC50) required 0.8 nM. This EC50 and that of the molecule before are within 1.5-fold of each other.

B4: scDb/scFv-Fc (1-1)+2, trivalent bispecific anti-CEAxanti-CD3 (bispecific antibody)
chain 1: B1 chain
chain 2: B2 chain 2
notes: also called scDbCEAxCEA-Fc(hole)Δab + scFvhuU3-Fc(knob)Δab
Take B4: the EC50 with CEA was 2.4 nM; with CD3 [1] it was 2.8 nM.
